Nine molecules from patent publication US20250206812A1 (AARHUS UNIVERSITET, published 2025) can be followed below.

For test [1], the target named is recombinant Api m 2 (rApi m 2), venom hyaluronidase (honeybee, UniProt Q08169 34-382). Briefly: ELISA, immobilized rApi m 2, purified nanobody. On the technique in general: ELISA stands for enzyme-linked immunosorbent assay.
Method: (A) Binding to immobilized Api m 1 was detected using anti-V5 antibody. […] (B) Binding to immobilized rApi m 2 was detected using mouse anti-penta-His and AP-conjugated rabbit anti-mouse IgG antibody.
The immunoreactivity of expressed nanobodies was assessed by ELISA. Briefly, micro well plates were coated with 10 μg/ml nApi m 1 or rApi m 2 diluted in PBS at 4° C. o.n. After blocking for 1 h with PBS containing 4% skimmed milk powder, purified nanobodies were incubated in the wells for 2-3 h at rt. shaking. After washing, nanobodies were detected with rabbit anti-V5 antibody (antibodies-online) and AP-conjugated goat anti-rabbit IgG antibody (Sigma) or with mouse anti-penta-His and AP-conjugated rabbit anti-mouse IgG antibody (Sigma).
Test [2] deals with T1, native Api m 1 (nApi m 1), phospholipase A2 from honeybee venom (Apis mellifera, UniProt P00630 34-167).
Test [3] has as its target T1, native Api m 1 (nApi m 1), …. The experiment in a line: cell-based or functional assay.
Test [4] has the same target. The experiment in a line: monoclonal phage ELISA (phage-displayed nanobody) on immobilized Api m 1 or AM1-4 IgG/Api m 1 complexes; positive clones.
Method: Enrichment of the nanobody phage library was assessed in ELISA by measuring the immunoreactivity of polyclonal phages (A). Binding of phages to immobilized Api m 1 or AM1-4 IgG/Api m 1 complexes was detected using a biotinylated anti-M13 antibody. Data are mean±s.d. of duplicates. Immunoreactivity of monoclonal phages was analyzed in ELISA as above (B). Data are single measurements.
After two rounds of selection the polyclonal phages were assessed for binding to Api m 1 by ELISA. Briefly, micro well plates were coated with 2 μg/ml Api m 1 or 10 μg/ml AM1-4IgG diluted in PBS at 4° C. o.n. After blocking for 30 min with TBS containing 4% skimmed milk powder, the wells were incubated with 2 μg/ml Api m 1 for 1 h at room temperature. After formation of AM1-4 IgG/Api m 1 complexes, polyclonal phages (1×10¹² phages/ml) were incubated in the wells for 2 h at room temperature. After washing, bound phages were detected with biotinylated anti-M13 antibody (Invitrogen) and AP-conjugated ExtrAvidin. For assessment of monoclonal phages, E. coli ER2738 infected with polyclonal phages were plated and individual colonies were picked and expanded for monoclonal phage propagation. Monoclonal phages were assessed by ELISA as described above.
For test [5] the target is unchanged. The experiment in a line: BLI, compared with AM1-1 IgG1.

T1 sequence (P00630 34-167): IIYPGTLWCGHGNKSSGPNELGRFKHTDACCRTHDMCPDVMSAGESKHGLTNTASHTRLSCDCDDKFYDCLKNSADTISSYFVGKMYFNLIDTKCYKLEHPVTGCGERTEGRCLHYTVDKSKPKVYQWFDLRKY
Sequence of recombinant Api m 2 (rApi m 2), venom hyaluronidase (Q08169 34-382): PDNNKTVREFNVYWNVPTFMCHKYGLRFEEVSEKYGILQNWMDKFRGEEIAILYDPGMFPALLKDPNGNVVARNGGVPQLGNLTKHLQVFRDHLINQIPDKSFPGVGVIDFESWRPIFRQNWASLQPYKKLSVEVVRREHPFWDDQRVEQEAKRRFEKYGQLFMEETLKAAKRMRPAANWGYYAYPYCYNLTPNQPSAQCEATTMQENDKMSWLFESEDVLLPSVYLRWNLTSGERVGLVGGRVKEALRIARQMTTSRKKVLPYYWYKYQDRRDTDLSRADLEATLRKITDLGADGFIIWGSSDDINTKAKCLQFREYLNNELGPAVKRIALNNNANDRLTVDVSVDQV

B1: nanobody AM2-C2 (VHH, not shown: small tags and cut ends)
VHH: EVQLQESGGGLVQPGGSLRLSCAASGTTINIGAARWYRQAPGKQREVVAGISFGGATNYIDSVKGRFTISRGDALNTWYLQMNNLKPEDTAVYYCNARGEWGQGTQVAVS
For B1, in test [1], the binding result was “binds”.

B2: nanobody AM2-O2 (VHH, not shown: small tags and cut ends)
VHH: EVQLQESGGGLVQAGGSLRLSCAASGDTICISAMGWYRQAPGKERELVAVITSADSTNYADSVKGRFTISRAGAKNTLYLQMNSLKPEDTAVYYCNAHTPKYSDFEVTCYEYDYWGQGTLVSVS
Regarding B2, the binding result in test [1] is “binds”.

B3: AM1-1 IgG1 (monospecific nanobody-based human IgG1) (Fc fusion)
chain: QVQLVETGGGLVQAGGSLRLSCATSGTIFSRATMAWYRQTPGKQREWVTTITTSGNTNYADSVKGRFTISRDNAESTLYLQMNSLKPEDTAVYYCNAQFLSSRTNYWGKGTQVTVS
What is called Kd is the concentration at which binding is half-saturated. For B3, binding in test [2] was characterised by a dissociation constant (Kd) of 1.94 nM. In test [3], the “inhibition of basophil activation (CD63 positive), Patient 1” value (shortened to “inhibition … Patient 1”) was 16% and the “inhibition of basophil activation (CD63 positive), Patient 2” value (“inhibition … Patient 2” below) stood at 7%.

B4: mix of the two monospecific nanobody-based human IgG1 (AM1-1 IgG1 and AM1-4 IgG1) (other)
chain 1: QVQLVETGGGLVQAGGSLRLSCATSGTIFSRATMAWYRQTPGKQREWVTTITTSGNTNYADSVKGRFTISRDNAESTLYLQMNSLKPEDTAVYYCNAQFLSSRTNYWGKGTQVTVS
chain 2: QVQLVESGGGLVQAGGSLRLSCAASGRTFSRYAMGWFRQAPGKEREFVSAISGSGGFTDYADSVKGRFTISRDNAKSTVYLRMSSLKPEDTAVYYCAAEGSRGSSTRLDARGTYDYWGQGTQVTVS
Consider B4, for which, in test [3], the “inhibition … Patient 1” value was found to be 69% and the “inhibition … Patient 2” value is 38%.

B5: AM1-4 IgG1 (monospecific nanobody-based human IgG1) (Fc fusion)
chain: QVQLVESGGGLVQAGGSLRLSCAASGRTFSRYAMGWFRQAPGKEREFVSAISGSGGFTDYADSVKGRFTISRDNAKSTVYLRMSSLKPEDTAVYYCAAEGSRGSSTRLDARGTYDYWGQGTQVTVS
Molecule B5 gave a Kd in test [2] of 0.3 nM. In addition, in test [3], the “inhibition … Patient 1” value was 44% and the “inhibition … Patient 2” value turned out to be 23%.

B6: nanobody AM1-21 (VHH, not shown: small tags and cut ends)
VHH: QVQLVESGGGLVQAGGSLRLSCAASGFTLDYYAIGWFRQAPGKEREGVSCITSYDDSTYYTDSVKGRFTISRDNAKNTVYLQMNSLKPEDTAVYYCAAVGTWYLVNWWAPSEYDYWGQGTQVTVS
notes: also called A7
For the molecule B6, in test [4], the binding result is “binds”.

B7: AM1-21 IgG1 (nanobody-based human IgG1) (Fc fusion)
chain: QVQLVESGGGLVQAGGSLRLSCAASGFTLDYYAIGWFRQAPGKEREGVSCITSYDDSTYYTDSVKGRFTISRDNAKNTVYLQMNSLKPEDTAVYYCAAVGTWYLVNWWAPSEYDYWGQGTQVTVS
B7 came in with a Kd in test [2] of 0.0153 nM. In test [5], the “fold higher affinity than AM1-1 IgG1” value was around 100 fold.

B8: nanobody AM1-22 (VHH, not shown: small tags and cut ends)
VHH: QVQLVESGGGLVQAGGSLRLSCAASGSIFNWAWYRQFPGKQREWVATITSGGNTNLADSVKGRFTISLDNAKNTMYLQMNSLKPEDTAVYYCNSARFRNRDAIWGQGTQVTVS
notes: also called B4
As for B8, the binding result in test [4] is listed as “binds”.

B9: AM1-22 IgG1 (nanobody-based human IgG1) (Fc fusion)
chain: QVQLVESGGGLVQAGGSLRLSCAASGSIFNWAWYRQFPGKQREWVATITSGGNTNLADSVKGRFTISLDNAKNTMYLQMNSLKPEDTAVYYCNSARFRNRDAIWGQGTQVTVS
In the case of B9, the Kd in test [2] was below 0.001 nM. The “fold higher affinity than AM1-1 IgG1” value in test [5] was around 100 fold.
